Measured values published in patent US8487074B2, “Modulation of lipid rafts” (Lantmannen AS-Faktor AB, priority 2006, dated 2013).
No end group written: not given here.

Columns and labels:
[1] = system: injured skin and cartilage; design: species or system rats; conditions: rat, in vivo
Description: In an experiment it was investigated whether the administration of AF-16 affected the healing process of injured skin and cartilage, using freeze-thaw injury to a rat ear as a model system. […] In addition 1 mg AF-16 was injected intramuscularly just after the implantation of the pump. Thereafter, a freeze-thaw injury was applied by compressing the ear in a standardized manner with the aid of a Pean's forceps, chilled in liquid nitrogen. For comparison, additional rats were treated in the same way in parallel were treated with the vehicle, PBS with 15% ethanol, only and no peptide. Additionally, normal rats, which had not been exposed to any freeze-thaw injury, were used for reference as were non-injured rats having pumps with AF-16 implanted. […] On either side bordering the injured elastic cartilage in the ear there was a formation of new hyaline cartilage. […] The amount of collagen and density of inflammatory cells were reduced in the AF-16 treated animals as compared to those having had the vehicle.

injured skin and periost = experiment: Healing of calvarial skin wound and periost in rabbits; type: in vivo, New Zeeland albino rabbits; conditions: vs vehicle
Description: Adult rabbits were investigated with regard to whether the administration of AF-16 affected the healing process of injured skin and periost. […] The rabbits had either AF-16 or the vehicle injected intravenously in a marginal ear vein. The dose of AF-16 was up to 5 mg per kg body weight, twice daily. The calvarial skin wound and the injection sites in the ear were investigated macroscopically after a week. Then, specimens were dissected from both areas and prepared by fixation, embedding, sectioning and staining for light microscopic examination.

aquaporins = experiment: Effects of AF treatment on aquaporins after trauma, infections and other pathological conditions; type: in vivo; conditions: topical or systemic administration
Source text: Aquaporins are a family of proteins, integrated in membranes, and expressed in all living cells and organisms. The major function of aquaporins is to control the water flow into and out of cells, i.e. between the cytoplasm of cells and the extracellular environment. Each type of cells, tissues and organs have their specific set of aquaporins with characteristic distribution patterns. Functional aquaporins are preferentially clustered in lipid rafts and caveolae, while subunits and dissociated aquaporin complexes may be demonstrable outside these membrane constituents. […] Further, at brain and spinal cord infections, e.g. encephalitis, the patterns of distribution and intensity of these two aquaporins became altered, as disclosed be immunohistochemistry and immunochemistry. The interaction between e.g. neurons and supporting glial cells and vascular structures seems to be intricate and complex, but important.
Experiments are performed mapping in more detail regarding effects of trauma, infections and other pathological conditions. […] Effects are characterized quantitatively and qualitatively and the importance of effects on the structure and functions of the different types of aquaporins in a body. […]

pulmonary hypertension = experiment: Crotaline (monocrotaline) induced pulmonary hypertension in rats; type: in vivo, Sprague-Dawley rats; conditions: crotaline 60 mg/kg ip; minipump infusion; assessed 18 days later; vs untreated normal controls
Description: Adolescent and adult rats, with a body weight of 150-300 g and of either sex, were treated experimentally to induce pulmonary hypertension and reactive alterations in the lungs. Pulmonary hypertension (PH) is defined as having a pressure in excess of the normal pulmonary artery pressure, […], usually in the range of 30-40 mm Hg. It is a progressive disease with high morbidity and mortality in humans as well as in animals. Experimental models enable investigation of the initiating mechanisms. A single treatment of rats with monocrotaline is an established approach for the induction of PH (Cf. Mathew et al., 2004). […]
The rats were anaesthetized 18 days later, and their body weights determined. […] The pressure in the right heart ventricle was assessed with the aid of a fiber optic miniature transducer system (Samba System 3200 & Samba Preclin 420 sensor; Samba Sensors AB, V. Frolunda, Sweden), inserted through the right jugular vein. […] In contrast, rats treated with crotaline (single ip injection; 60 mg/kg body weight; crotaline dissolved in PBS) and the vehicle delivered by a Alzet pump had for 18 days an pulmonary artery pressure in excess of 30 mm Hg and a hypertrophy of the right ventricle, as assessed by comparing its wet weight to that of the left ventricle and with the weight of corresponding structures of non-treated, normal rats. […]

Molecule: VCHSKTRSNPENNVGL [AF-16, VCHSKTRSNPENNVGL]
- structures in the ear of non-injured rats [1]: did not alter the structures in the ear

B1: AF: antisecretory factor, a 41 kDa protein comprising 382 amino acids; the term also covers homologues, derivatives and fragments (protein, listed as Homo sapiens)
chain: MVLESTMVCVDNSEYMRNGDFLPTRLQAQQDAVNIVCHSKTRSNPENNVGLITLANDCEVLTTLTPDTGRILSKLHTVQPKGKITFCTGIRVAHLALKHRQGKNHKMRIIAFVGSPVEDNEKDLVKLAKRLKKEKVNVDIINFGEEEVNTEKLTAFVNTLNGKDGTGSHLVTVPPGPSLADALISSPILAGEGGAMLGLGASDFEFGVDPSADPELALALRVSMEEQRHAGGGARRAARASAAEAGIATTGTEDSDDALLKMTISQQEFGRTGLPDLSSMTEEEQIAYAMQMSLQGAEFGQAESADIDASSAMDTSEPAKEEDDYDVMQDPEFLQSVLENLPGVDPNNEAIRNAMGSLPPRPPRTARRTRRRKTRSETGGKG
- frequency of caveolae (injured skin and periost): more normal
- prevalence, distribution and activity of aquaporins and ion channel complexes (aquaporins): great impact in monitoring and even normalizing
- general appearance and body weight (pulmonary hypertension): appeared healthy and had almost the same weight and appearance as the controls
